From PMC9018054, “Biotechnological potential and initial characterization of two novel sesquiterpene synthases from Basidiomycota Coniophora puteana for heterologous production of δ-cadinol” (Microbial Cell Factories, 2022)

B1: Copu9, (+)-δ-cadinol synthase from Coniophora puteana (enzyme, UniProt A0A5M3MXY8 1-349, looked up)
chain: MSPTATFTTTSSEENAPTKFILPDLVSDCTYPLLLNDNCEPVARASEQWLIAGARLQEPRRTKFMGLLAGELTAACYPHADASHLRVCVDFMNWLFNMDDWLDDFDVDDTWGMRHCCLGAFRDPVGFETDKLGGLMSKSFFSRFRQDGGPGCTERFIHTMDLFFIAVAQQAGDRANGITPDLESYITVRRDTSGCKPCFALIEYAAGIDLPDHVIYHPTLAAMEEATNDLVTWSNDIFSYNKEQVTDDTHNMIPVLMRERGLDLQGAVDFVGRLCKGTIERFETERARLPSWGPELDAQVQTYIEGLQNWIVGSLHWSFDSHRYFGKDGHAVKKHRIVKLLPKRVPQQA
notes: Copu9, sesquiterpene synthase ((+)-δ-cadinol synthase) of Coniophora puteana, XP_007765560; codon-optimised open reading frame; the crystal structure is complete except for the 13 N-terminal residues; no removal of the tag is described; Crystallised with three Mg2+ ions and alendronate (AHD); also called Copu9 WT; Copu9·Mg3·AHD; source: E. coli BL21 RIL DE3, purified (Ni2+-NTA, size exclusion …)
B2: Copu9 (Coniophora puteana RWD-64-598 SS2; N228A) (protein)
chain: MSPTATFTTTSSEENAPTKFILPDLVSDCTYPLLLNDNCEPVARASEQWLIAGARLQEPRRTKFMGLLAGELTAACYPHADASHLRVCVDFMNWLFNMDDWLDDFDVDDTWGMRHCCLGAFRDPVGFETDKLGGLMSKSFFSRFRQDGGPGCTERFIHTMDLFFIAVAQQAGDRANGITPDLESYITVRRDTSGCKPCFALIEYAAGIDLPDHVIYHPTLAAMEEATADLVTWSNDIFSYNKEQVTDDTHNMIPVLMRERGLDLQGAVDFVGRLCKGTIERFETERARLPSWGPELDAQVQTYIEGLQNWIVGSLHWSFDSHRYFGKDGHAVKKHRIVKLLPKRVPQQA
notes: full-length, codon-optimized, N-terminal hexa-His tag (pET-M11), expressed in E. coli BL21 RIL DE3; homodimer; 13 N-terminal residues not visible in crystal
B3: Copu9 (Coniophora puteana RWD-64-598 SS2; P197C) (protein)
chain: MSPTATFTTTSSEENAPTKFILPDLVSDCTYPLLLNDNCEPVARASEQWLIAGARLQEPRRTKFMGLLAGELTAACYPHADASHLRVCVDFMNWLFNMDDWLDDFDVDDTWGMRHCCLGAFRDPVGFETDKLGGLMSKSFFSRFRQDGGPGCTERFIHTMDLFFIAVAQQAGDRANGITPDLESYITVRRDTSGCKCCFALIEYAAGIDLPDHVIYHPTLAAMEEATNDLVTWSNDIFSYNKEQVTDDTHNMIPVLMRERGLDLQGAVDFVGRLCKGTIERFETERARLPSWGPELDAQVQTYIEGLQNWIVGSLHWSFDSHRYFGKDGHAVKKHRIVKLLPKRVPQQA
notes: as for B2
B4: Copu9 (Coniophora puteana RWD-64-598 SS2; C195V) (protein)
chain: MSPTATFTTTSSEENAPTKFILPDLVSDCTYPLLLNDNCEPVARASEQWLIAGARLQEPRRTKFMGLLAGELTAACYPHADASHLRVCVDFMNWLFNMDDWLDDFDVDDTWGMRHCCLGAFRDPVGFETDKLGGLMSKSFFSRFRQDGGPGCTERFIHTMDLFFIAVAQQAGDRANGITPDLESYITVRRDTSGVKPCFALIEYAAGIDLPDHVIYHPTLAAMEEATNDLVTWSNDIFSYNKEQVTDDTHNMIPVLMRERGLDLQGAVDFVGRLCKGTIERFETERARLPSWGPELDAQVQTYIEGLQNWIVGSLHWSFDSHRYFGKDGHAVKKHRIVKLLPKRVPQQA
notes: as for B2
B5: Copu9 (Coniophora puteana RWD-64-598 SS2) (protein)
chain: MSPTATFTTTSSEENAPTKFILPDLVSDCTYPLLLNDNCEPVARASEQWLIAGARLQEPRRTKFMGLLAGELTAACYPHADASHLRVCVDFMNWLFNMDDWLDDFDVDDTWGMRHCCLGAFRDPVGFETDKLGGLMSKSFFSRFRQDGGPGCTERFIHTMDLFFIAVAQQAGDRANGITPDLESYITVRRDTSGCKPCFALIEYAAGIDLPDHVIYHPTLAAMEEATNDLVTWSNDIFSYNKEQVTDDTHNMIPVLMRERGLDLQGAVDFVGRLCKGTIERFETERARLPSWGPELDAQVQTYIEGLQNWIVGSLHWSFDSHRYFGKDGHAVKKHRIVKLLPKRVPQQA
notes: as for B2
B6: Copu9 (Coniophora puteana RWD-64-598 SS2; G194A) (protein)
chain: MSPTATFTTTSSEENAPTKFILPDLVSDCTYPLLLNDNCEPVARASEQWLIAGARLQEPRRTKFMGLLAGELTAACYPHADASHLRVCVDFMNWLFNMDDWLDDFDVDDTWGMRHCCLGAFRDPVGFETDKLGGLMSKSFFSRFRQDGGPGCTERFIHTMDLFFIAVAQQAGDRANGITPDLESYITVRRDTSACKPCFALIEYAAGIDLPDHVIYHPTLAAMEEATNDLVTWSNDIFSYNKEQVTDDTHNMIPVLMRERGLDLQGAVDFVGRLCKGTIERFETERARLPSWGPELDAQVQTYIEGLQNWIVGSLHWSFDSHRYFGKDGHAVKKHRIVKLLPKRVPQQA
notes: as for B2
B7: Copu9 (Coniophora puteana RWD-64-598 SS2; T73C) (protein)
chain: MSPTATFTTTSSEENAPTKFILPDLVSDCTYPLLLNDNCEPVARASEQWLIAGARLQEPRRTKFMGLLAGELCAACYPHADASHLRVCVDFMNWLFNMDDWLDDFDVDDTWGMRHCCLGAFRDPVGFETDKLGGLMSKSFFSRFRQDGGPGCTERFIHTMDLFFIAVAQQAGDRANGITPDLESYITVRRDTSGCKPCFALIEYAAGIDLPDHVIYHPTLAAMEEATNDLVTWSNDIFSYNKEQVTDDTHNMIPVLMRERGLDLQGAVDFVGRLCKGTIERFETERARLPSWGPELDAQVQTYIEGLQNWIVGSLHWSFDSHRYFGKDGHAVKKHRIVKLLPKRVPQQA
notes: as for B2
B8: Copu9 (Coniophora puteana RWD-64-598 SS2; T192N) (protein)
chain: MSPTATFTTTSSEENAPTKFILPDLVSDCTYPLLLNDNCEPVARASEQWLIAGARLQEPRRTKFMGLLAGELTAACYPHADASHLRVCVDFMNWLFNMDDWLDDFDVDDTWGMRHCCLGAFRDPVGFETDKLGGLMSKSFFSRFRQDGGPGCTERFIHTMDLFFIAVAQQAGDRANGITPDLESYITVRRDNSGCKPCFALIEYAAGIDLPDHVIYHPTLAAMEEATNDLVTWSNDIFSYNKEQVTDDTHNMIPVLMRERGLDLQGAVDFVGRLCKGTIERFETERARLPSWGPELDAQVQTYIEGLQNWIVGSLHWSFDSHRYFGKDGHAVKKHRIVKLLPKRVPQQA
notes: as for B2
B9: Copu9 (Coniophora puteana RWD-64-598 SS2; C76V) (protein)
chain: MSPTATFTTTSSEENAPTKFILPDLVSDCTYPLLLNDNCEPVARASEQWLIAGARLQEPRRTKFMGLLAGELTAAVYPHADASHLRVCVDFMNWLFNMDDWLDDFDVDDTWGMRHCCLGAFRDPVGFETDKLGGLMSKSFFSRFRQDGGPGCTERFIHTMDLFFIAVAQQAGDRANGITPDLESYITVRRDTSGCKPCFALIEYAAGIDLPDHVIYHPTLAAMEEATNDLVTWSNDIFSYNKEQVTDDTHNMIPVLMRERGLDLQGAVDFVGRLCKGTIERFETERARLPSWGPELDAQVQTYIEGLQNWIVGSLHWSFDSHRYFGKDGHAVKKHRIVKLLPKRVPQQA
notes: as for B2
B10: Copu9 (Coniophora puteana RWD-64-598 SS2; S314N) (protein)
chain: MSPTATFTTTSSEENAPTKFILPDLVSDCTYPLLLNDNCEPVARASEQWLIAGARLQEPRRTKFMGLLAGELTAACYPHADASHLRVCVDFMNWLFNMDDWLDDFDVDDTWGMRHCCLGAFRDPVGFETDKLGGLMSKSFFSRFRQDGGPGCTERFIHTMDLFFIAVAQQAGDRANGITPDLESYITVRRDTSGCKPCFALIEYAAGIDLPDHVIYHPTLAAMEEATNDLVTWSNDIFSYNKEQVTDDTHNMIPVLMRERGLDLQGAVDFVGRLCKGTIERFETERARLPSWGPELDAQVQTYIEGLQNWIVGNLHWSFDSHRYFGKDGHAVKKHRIVKLLPKRVPQQA
notes: as for B2

Biological target: the molecule itself
Test: SEC; HighLoad Superdex S200 16/60; 20 mM Tris/HCl pH 7.5, 150 mM NaCl, 5 mM MgCl2; calibrated with a high molecular weight standard
Settings: not given

With B1 the “stoichiometry N” value was 2.

The molecules below were run against T1, Copu5 (Coniophora puteana, UniProt A0A5M3MX24) (assay: sesquiterpene production in E. coli, GC-MS and NMR of product). Settings: E. coli HMS174 (DE3) with DXS and IDI co-expression, endogenous FPP; product (+)-δ-cadinol.
T1 construct: full-length, codon-optimized, N-terminal hexa-His tag (pET-M11) for thermal shift, expressed in E. coli BL21 RIL DE3; purified in pyrophosphate-containing buffer; pACYC-based operon in E. coli HMS174 (DE3) for terpene production
Assay type: cell-based

T1 sequence (A0A5M3MX24 entry or part of it): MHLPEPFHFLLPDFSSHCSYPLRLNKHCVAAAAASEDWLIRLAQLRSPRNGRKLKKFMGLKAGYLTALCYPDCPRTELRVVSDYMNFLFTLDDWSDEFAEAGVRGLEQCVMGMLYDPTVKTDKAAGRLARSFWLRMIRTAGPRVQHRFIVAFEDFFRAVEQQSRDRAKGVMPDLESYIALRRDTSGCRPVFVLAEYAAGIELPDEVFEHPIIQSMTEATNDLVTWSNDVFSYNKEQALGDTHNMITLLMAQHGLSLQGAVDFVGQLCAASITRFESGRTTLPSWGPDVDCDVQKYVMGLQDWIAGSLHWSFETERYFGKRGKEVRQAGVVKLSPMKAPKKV

For `CC(C)=CCC/C(C)=C/CC/C(C)=C/COP(=O)(O)OP(=O)(O)O` [FPP], the “sesquiterpene production in E. coli, GC-MS and NMR of product” value was “catalyze the formation of (+)-δ-cadinol as main product from its direct precursor FPP”.

The molecules below were run on CC(C)=CCC/C(C)=C/CC/C(C)=C/CO[P@@](=O)(O)OP(=O)(O)O (assay: purified protein). Settings: 25 °C, FPP 0-70 µM in methanol, 0.8–1.2 µM enzyme.
Assay type: biochemical, Coniophora puteana

In order of rising Km:
1. B9  3.14 ± 0.45 µM
2. B2  4.42 ± 0.59 µM
3. B5  4.59 ± 0.17 µM
4. B10  5.10 ± 0.54 µM
5. B7  6.28 ± 1.37 µM
6. B3  6.82 ± 0.77 µM
7. B6  7.00 ± 0.37 µM
8. B8  8.28 ± 0.60 µM
9. B4  8.48 ± 0.51 µM

In order of rising kcat:
1. B10  0.0192 ± 0.0005 s⁻¹
2. B2  0.0262 ± 0.0007 s⁻¹
3. B9  0.0291 ± 0.0007 s⁻¹
4. B5  0.0324 ± 0.0003 s⁻¹
5. B6  0.036 ± 0.0005 s⁻¹
6. B3  0.0381 ± 0.001 s⁻¹
7. B8  0.0396 ± 0.0008 s⁻¹
8. B4  0.0398 ± 0.0007 s⁻¹
9. B7  0.0502 ± 0.0026 s⁻¹

In order of falling kcat/Km:
1. B9  9250 M⁻¹ s⁻¹
2. B7  8000 M⁻¹ s⁻¹
3. B5  7070 M⁻¹ s⁻¹
4. B2  5940 M⁻¹ s⁻¹
5. B3  5580 M⁻¹ s⁻¹
6. B6  5140 M⁻¹ s⁻¹
7. B8  4780 M⁻¹ s⁻¹
8. B4  4690 M⁻¹ s⁻¹
9. B10  3760 M⁻¹ s⁻¹
